Results taken from paper PMC5620043, “A general mechanism of ribosome dimerization revealed by single-particle cryo-electron microscopy” (Nature Communications, 2017).

Target: the molecule itself
Experiment: SEC-MALS; SEC-MALLS, Superdex 200 10/300, 100 mM Tris-HCl, 150 mM NaCl, pH 8.0; protein concentrated to about 4 mg/ml; three batches, two with 10% glycerol

B1: HPF^long from L. lactis with N-terminal Strep-tag (natural protein, UniProt A2RIX0 1-185, looked up)
chain: MIKFNIRGENVEVTDAIRAYVEDKIGKLDKYFNDGHEVTAYVNLKVYTEKRAKVEVTLPAKNVTLRAEDTSQDMYSSIDFVEEKLERQIRKYKTRMNRKPRNAVPTGQVFGDEFAPLDTTDEVAEDHVDIVRTKHVALKPMDAEEAVLQMDMLGHDFYVFTDADSNGTHVVYRRTDGRYGLIETE
notes: HPF^long of Lactococcus lactis, 185 residues, calculated monomer mass 21.3 kDa; also called purified HPF^long; source: overexpressed in L. lactis NZ9000, purified on a Strep-tactin Sepharose column
- stoichiometry N: 2
